Measured values as given in US20230021388A1 (VELOSBIO, published 2023).

target: T1, recombinant human ROR1 extracellular domain (human, UniProt Q01973 30-406); experiment: capture filter lift
T1 construct: biotinylated for the filter lifts; also called huROR1-ECD; human ROR1-ECD
Method: Subsequently, the filter was applied to the agar plates as described above. For detection of antigen binding, the filter was rinsed briefly in PBS, and transferred to biotinylated huROR1-ECD (ACROBiosystems, cat. #RO1-H522y) in 5% M-P.
Filters were incubated with 2.3 nM biotinylated ROR1 diluted in 5% M-P for 2 h at 25° C. with constant agitation, and washed 5 times, 2 minutes each wash, with constant agitation in PBS-T. Alternatively, filters were washed more rapidly using a squirt bottle and sintered glass funnel for vacuum filtration. The filters were transferred to 10 mL of High Sensitivity Neutravidin, HRP conjugate (Thermo Scientific, cat. #31030) diluted 5000-fold in 1% BSA in PBS and incubated for 1 h at 25° C. The filters were then washed 5 times in PBS-T and were developed with 1-Step Ultra TMB-Blotting.
All libraries were initially screened by capture lift to identify variants with improved binding. The capture lift assay, described in Example 1, enables the filter lift assay to discern variants that bind antigen more strongly based on the staining intensity. In order to determine the optimal concentration of antigen to use for screening, biotinylated huROR1-ECD was titrated on a capture lift of Ab1 Fab. Binding to Ab1 was clearly visible at antigen concentrations ≥23 nM and the signal was diminished at lower huROR1 concentrations. […] In addition, for more stringent screening, filters were probed with lower concentrations of antigen and/or development of the filter was terminated earlier, before the Ab1 staining was visible. […] In this example, approximately 250 library variants were plated. Twelve variants clearly bound huROR1 (FIG. 4, numbered).

T1 sequence (Q01973 30-406 limits assumed): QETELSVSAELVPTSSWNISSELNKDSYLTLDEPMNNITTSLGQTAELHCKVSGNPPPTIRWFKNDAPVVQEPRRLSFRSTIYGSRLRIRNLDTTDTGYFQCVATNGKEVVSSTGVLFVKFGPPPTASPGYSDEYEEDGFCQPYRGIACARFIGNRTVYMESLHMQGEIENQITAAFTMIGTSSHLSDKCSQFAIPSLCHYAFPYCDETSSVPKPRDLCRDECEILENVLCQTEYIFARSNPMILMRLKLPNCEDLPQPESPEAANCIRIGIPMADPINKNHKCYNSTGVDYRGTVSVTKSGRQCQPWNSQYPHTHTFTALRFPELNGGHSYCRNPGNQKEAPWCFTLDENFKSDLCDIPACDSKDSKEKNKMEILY

binding result | Binder
binds | Ab1 Fab variant L3 D110N (Fab, V domains shown, Fab) VH: QVQLQESGPGLVKPSQTLSLTCTVSGYAFTAYNIHWVRQAPGQGLEWMGSFDPYDGGSSYNQKFKDRLTISKDTSKNQVVLTMTNMDPVDTATYYCARGWYYFDYWGHGTLVTVSS VL: DIVMTQTPLSLPVTPGEPASISCRASKSISKYLAWYQQKPGQAPRLLIYSGSTLQSGIPPRFSGSGYGTDFTLTINNIESEDAAYYFCQQHNESPYTFGEGTKVEIK
binds | Ab1 Fab variant L3 S135H (Fab, V domains shown, Fab) VH: QVQLQESGPGLVKPSQTLSLTCTVSGYAFTAYNIHWVRQAPGQGLEWMGSFDPYDGGSSYNQKFKDRLTISKDTSKNQVVLTMTNMDPVDTATYYCARGWYYFDYWGHGTLVTVSS VL: DIVMTQTPLSLPVTPGEPASISCRASKSISKYLAWYQQKPGQAPRLLIYSGSTLQSGIPPRFSGSGYGTDFTLTINNIESEDAAYYFCQQHDEHPYTFGEGTKVEIK
binds | Ab1 Fab variant L3 S135V (Fab, V domains shown, Fab) VH: QVQLQESGPGLVKPSQTLSLTCTVSGYAFTAYNIHWVRQAPGQGLEWMGSFDPYDGGSSYNQKFKDRLTISKDTSKNQVVLTMTNMDPVDTATYYCARGWYYFDYWGHGTLVTVSS VL: DIVMTQTPLSLPVTPGEPASISCRASKSISKYLAWYQQKPGQAPRLLIYSGSTLQSGIPPRFSGSGYGTDFTLTINNIESEDAAYYFCQQHDEVPYTFGEGTKVEIK
binds | Ab1 Fab variant L3 E111L (Fab, V domains shown, Fab) VH: QVQLQESGPGLVKPSQTLSLTCTVSGYAFTAYNIHWVRQAPGQGLEWMGSFDPYDGGSSYNQKFKDRLTISKDTSKNQVVLTMTNMDPVDTATYYCARGWYYFDYWGHGTLVTVSS VL: DIVMTQTPLSLPVTPGEPASISCRASKSISKYLAWYQQKPGQAPRLLIYSGSTLQSGIPPRFSGSGYGTDFTLTINNIESEDAAYYFCQQHDLSPYTFGEGTKVEIK
binds | Ab1 Fab variant L3 H109Q (Fab, V domains shown, Fab) VH: QVQLQESGPGLVKPSQTLSLTCTVSGYAFTAYNIHWVRQAPGQGLEWMGSFDPYDGGSSYNQKFKDRLTISKDTSKNQVVLTMTNMDPVDTATYYCARGWYYFDYWGHGTLVTVSS VL: DIVMTQTPLSLPVTPGEPASISCRASKSISKYLAWYQQKPGQAPRLLIYSGSTLQSGIPPRFSGSGYGTDFTLTINNIESEDAAYYFCQQQDESPYTFGEGTKVEIK
binds | Ab1 Fab variant L3 Q108L (Fab, V domains shown, Fab) VH: QVQLQESGPGLVKPSQTLSLTCTVSGYAFTAYNIHWVRQAPGQGLEWMGSFDPYDGGSSYNQKFKDRLTISKDTSKNQVVLTMTNMDPVDTATYYCARGWYYFDYWGHGTLVTVSS VL: DIVMTQTPLSLPVTPGEPASISCRASKSISKYLAWYQQKPGQAPRLLIYSGSTLQSGIPPRFSGSGYGTDFTLTINNIESEDAAYYFCQLHDESPYTFGEGTKVEIK
binds | Ab1 Fab variant L3 S135G (Fab, V domains shown, Fab) VH: QVQLQESGPGLVKPSQTLSLTCTVSGYAFTAYNIHWVRQAPGQGLEWMGSFDPYDGGSSYNQKFKDRLTISKDTSKNQVVLTMTNMDPVDTATYYCARGWYYFDYWGHGTLVTVSS VL: DIVMTQTPLSLPVTPGEPASISCRASKSISKYLAWYQQKPGQAPRLLIYSGSTLQSGIPPRFSGSGYGTDFTLTINNIESEDAAYYFCQQHDEGPYTFGEGTKVEIK
binds | Ab1 Fab variant L3 Q108A (Fab, V domains shown, Fab) VH: QVQLQESGPGLVKPSQTLSLTCTVSGYAFTAYNIHWVRQAPGQGLEWMGSFDPYDGGSSYNQKFKDRLTISKDTSKNQVVLTMTNMDPVDTATYYCARGWYYFDYWGHGTLVTVSS VL: DIVMTQTPLSLPVTPGEPASISCRASKSISKYLAWYQQKPGQAPRLLIYSGSTLQSGIPPRFSGSGYGTDFTLTINNIESEDAAYYFCQAHDESPYTFGEGTKVEIK
binds | Ab1 Fab variant L3 Y137V (Fab, V domains shown, Fab) VH: QVQLQESGPGLVKPSQTLSLTCTVSGYAFTAYNIHWVRQAPGQGLEWMGSFDPYDGGSSYNQKFKDRLTISKDTSKNQVVLTMTNMDPVDTATYYCARGWYYFDYWGHGTLVTVSS VL: DIVMTQTPLSLPVTPGEPASISCRASKSISKYLAWYQQKPGQAPRLLIYSGSTLQSGIPPRFSGSGYGTDFTLTINNIESEDAAYYFCQQHDESPVTFGEGTKVEIK
binds | Ab1 Fab variant L3 T138S (Fab, V domains shown, Fab) VH: QVQLQESGPGLVKPSQTLSLTCTVSGYAFTAYNIHWVRQAPGQGLEWMGSFDPYDGGSSYNQKFKDRLTISKDTSKNQVVLTMTNMDPVDTATYYCARGWYYFDYWGHGTLVTVSS VL: DIVMTQTPLSLPVTPGEPASISCRASKSISKYLAWYQQKPGQAPRLLIYSGSTLQSGIPPRFSGSGYGTDFTLTINNIESEDAAYYFCQQHDESPYSFGEGTKVEIK
binds | Ab1 Fab variant L3 Q107S (Fab, V domains shown, Fab) VH: QVQLQESGPGLVKPSQTLSLTCTVSGYAFTAYNIHWVRQAPGQGLEWMGSFDPYDGGSSYNQKFKDRLTISKDTSKNQVVLTMTNMDPVDTATYYCARGWYYFDYWGHGTLVTVSS VL: DIVMTQTPLSLPVTPGEPASISCRASKSISKYLAWYQQKPGQAPRLLIYSGSTLQSGIPPRFSGSGYGTDFTLTINNIESEDAAYYFCSQHDESPYTFGEGTKVEIK
binds | Ab1 Fab variant L3 S135P (Fab, V domains shown, Fab) VH: QVQLQESGPGLVKPSQTLSLTCTVSGYAFTAYNIHWVRQAPGQGLEWMGSFDPYDGGSSYNQKFKDRLTISKDTSKNQVVLTMTNMDPVDTATYYCARGWYYFDYWGHGTLVTVSS VL: DIVMTQTPLSLPVTPGEPASISCRASKSISKYLAWYQQKPGQAPRLLIYSGSTLQSGIPPRFSGSGYGTDFTLTINNIESEDAAYYFCQQHDEPPYTFGEGTKVEIK
binds | Ab1 Fab variant L3 T138F (Fab, V domains shown, Fab) VH: QVQLQESGPGLVKPSQTLSLTCTVSGYAFTAYNIHWVRQAPGQGLEWMGSFDPYDGGSSYNQKFKDRLTISKDTSKNQVVLTMTNMDPVDTATYYCARGWYYFDYWGHGTLVTVSS VL: DIVMTQTPLSLPVTPGEPASISCRASKSISKYLAWYQQKPGQAPRLLIYSGSTLQSGIPPRFSGSGYGTDFTLTINNIESEDAAYYFCQQHDESPYFFGEGTKVEIK
binds | Ab1 Fab variant L3 Q108R (Fab, V domains shown, Fab) VH: QVQLQESGPGLVKPSQTLSLTCTVSGYAFTAYNIHWVRQAPGQGLEWMGSFDPYDGGSSYNQKFKDRLTISKDTSKNQVVLTMTNMDPVDTATYYCARGWYYFDYWGHGTLVTVSS VL: DIVMTQTPLSLPVTPGEPASISCRASKSISKYLAWYQQKPGQAPRLLIYSGSTLQSGIPPRFSGSGYGTDFTLTINNIESEDAAYYFCQRHDESPYTFGEGTKVEIK
binds | Ab1 Fab variant L3 H109N (Fab, V domains shown, Fab) VH: QVQLQESGPGLVKPSQTLSLTCTVSGYAFTAYNIHWVRQAPGQGLEWMGSFDPYDGGSSYNQKFKDRLTISKDTSKNQVVLTMTNMDPVDTATYYCARGWYYFDYWGHGTLVTVSS VL: DIVMTQTPLSLPVTPGEPASISCRASKSISKYLAWYQQKPGQAPRLLIYSGSTLQSGIPPRFSGSGYGTDFTLTINNIESEDAAYYFCQQNDESPYTFGEGTKVEIK
binds | Ab1 Fab variant L3 E111I (Fab, V domains shown, Fab) VH: QVQLQESGPGLVKPSQTLSLTCTVSGYAFTAYNIHWVRQAPGQGLEWMGSFDPYDGGSSYNQKFKDRLTISKDTSKNQVVLTMTNMDPVDTATYYCARGWYYFDYWGHGTLVTVSS VL: DIVMTQTPLSLPVTPGEPASISCRASKSISKYLAWYQQKPGQAPRLLIYSGSTLQSGIPPRFSGSGYGTDFTLTINNIESEDAAYYFCQQHDISPYTFGEGTKVEIK
binds | Ab1 Fab variant L3 Y137T (Fab, V domains shown, Fab) VH: QVQLQESGPGLVKPSQTLSLTCTVSGYAFTAYNIHWVRQAPGQGLEWMGSFDPYDGGSSYNQKFKDRLTISKDTSKNQVVLTMTNMDPVDTATYYCARGWYYFDYWGHGTLVTVSS VL: DIVMTQTPLSLPVTPGEPASISCRASKSISKYLAWYQQKPGQAPRLLIYSGSTLQSGIPPRFSGSGYGTDFTLTINNIESEDAAYYFCQQHDESPTTFGEGTKVEIK
